Experimental data: publication PMC2480485 (Journal of Biomolecular Nmr, 2008)

What was measured:
[1] = target: mouse Src SH3 domain, residues 85-142 (mouse) (UniProt P05480); assay: NMR titration
[2] = target: mouse Src SH3 domain, residues 85-142 (mouse) (UniProt P05480); assay: paramagnetic relaxation enhancement NMR
[3] = target: mouse Src SH3 domain, residues 85-142 (mouse, UniProt P05480-2 85-142); assay: NMR titration

Molecule | Kd [1] [µM] | fraction of protein bound [2] [%] | Kd [3] [µM]
peptide P3Tm (RALP-TOAC-IPKL, TOAC within the core binding motif of the FAK peptide) | 900 | 44 | –
Ac-RALPSIPKL-NH2 [peptide P3 (unlabelled control peptide derived from focal adhesion kinase, RALPSIPKL)] | – | – | 56 ± 11
